Columns and labels:
[1] = western blot, FLAG-tagged wild-type SERCA3 in C2C12; settings: glycan lost; control: vector / control siRNA
[2] = western blot, endogenous SERCA3, C2C12 myotubes ± MG-132; settings: glycan lost; control: vector / control siRNA

Row | Protein | expression_or_secretion [1] | expression_or_secretion [2]
1 | human SERCA3: OGT knockdown (protein) parent chain: MEAAHLLPAADVLRHFSVTAEGGLSPAQVTGARERYGPNELPSEEGKSLWELVLEQFEDLLVRILLLAALVSFVLAWFEEGEETTTAFVEPLVIMLILVANAIVGVWQERNAESAIEALKEYEPEMGKVIRSDRKGVQRIRARDIVPGDIVEVAVGDKVPADLRLIEIKSTTLRVDQSILTGESVSVTKHTEAIPDPRAVNQDKKNMLFSGTNITSGKAVGVAVATGLHTELGKIRSQMAAVEPERTPLQRKLDEFGRQLSHAISVICVAVWVINIGHFADPAHGGSWLRGAVYYFKIAVALAVAAIPEGLPAVITTCLALGTRRMARKNAIVRSLPSVETLGCTSVICSDKTGTLTTNQMSVCRMFVVAEADAGSCLLHEFTISGTTYTPEGEVRQGDQPVRCGQFDGLVELATICALCNDSALDYNEAKGVYEKVGEATETALTCLVEKMNVFDTDLQALSRVERAGACNTVIKQLMRKEFTLEFSRDRKSMSVYCTPTRPHPTGQGSKMFVKGAPESVIERCSSVRVGSRTAPLTPTSREQILAKIRDWGSGSDTLRCLALATRDAPPRKEDMELDDCSKFVQYETDLTFVGCVGMLDPPRPEVAACITRCYQAGIRVVMITGDNKGTAVAICRRLGIFGDTEDVAGKAYTGREFDDLSPEQQRQACRTARCFARVEPAHKSRIVENLQSFNEITAMTGDGVNDAPALKKAEIGIAMGSGTAVAKSAAEMVLSDDNFASIVAAVEEGRAIYSNMKQFIRYLISSNVGEVVCIFLTAILGLPEALIPVQLLWVNLVTDGLPATALGFNPPDLDIMEKLPRSPREALISGWLFFRYLAIGVYVGLATVAAATWWFVYDAEGPHINFYQLRNFLKCSEDNPLFAGIDCEVFESRFPTTMALSVLVTIEMCNALNSVSENQSLLRMPPWMNPWLLVAVAMSMALHFLILLVPPLPLIFQVTPLSGRQWVVVLQISLPVILLDEALKYLSRNHMHEEMSQK | decreases | –
2 | SERCA3: siRNA-mediated knockdown of OGT (protein) parent chain: MEEAHLLSAADVLRRFSVTAEGGLSLEQVTDARERYGPNELPTEEGKSLWELVVEQFEDLLVRILLLAALVSFVLAWFEEGEETTTAFVEPLVIMLILVANAIVGVWQERNAESAIEALKEYEPEMGKVIRSDRKGVQRIRARDIVPGDIVEVAVGDKVPADLRLIEIKSTTLRVDQSILTGESVSVTKHTDAIPDPRAVNQDKKNMLFSGTNIASGKALGVAVATGLQTELGKIRSQMAAVEPERTPLQRKLDEFGRQLSHAISVICVAVWVINIGHFADPAHGGSWLRGAVYYFKIAVALAVAAIPEGLPAVITTCLALGTRRMARKNAIVRSLPSVETLGCTSVICSDKTGTLTTNQMSVCRMFVVAEAEAGTCRLHEFTISGTTYTPEGEVRQGEQPVRCGQFDGLVELATICALCNDSALDYNEAKGVYEKVGEATETALTCLVEKMNVFDTDLKGLSRVERAGACNSVIKQLMRKEFTLEFSRDRKSMSVYCTPTRADPKVQGSKMFVKGAPESVIERCSSVRVGSRTAPLSTTSREHILAKIRDWGSGSDTLRCLALATRDTPPRKEDMHLDDCSRFVQYETDLTFVGCVGMLDPPRPEVAACITRCSRAGIRVVMITGDNKGTAVAICRRLGIFGDTEDVLGKAYTGREFDDLSPEQQRQACRTARCFARVEPAHKSRIVENLQSFNEITAMTGDGVNDAPALKKAEIGIAMGSGTAVAKSAAEMVLSDDNFASIVAAVEEGRAIYNNMKQFIRYLISSNVGEVVCIFLTAILGLPEALIPVQLLWVNLVTDGLPATALGFNPPDLDIMEKPPRNPREALISGWLFFRYLAIGVYVGLATVAAATWWFLYDTEGPQVTFYQLRNFLKCSEDNPLFAGIDCKVFESRFPTTMALSVLVTIEMCNALNSVSENQSLLRMPPWLNPWLLGAVVMSMALHFLILLVPPLPLIFQVTPLSGRQWGVVLQMSLPVILLDEALKYLSRNHMDEKKDLK | – | decreases
